Target: T1, Human CD137 ECD (human)
T1 construct: entry includes C-terminal His-tag and biotin acceptor peptide; also called human CD137 extracellular domain; 4-1BB
Assay: Biacore SPR, vs parent H183/L072

T1 sequence (chain, as listed by the source limits assumed): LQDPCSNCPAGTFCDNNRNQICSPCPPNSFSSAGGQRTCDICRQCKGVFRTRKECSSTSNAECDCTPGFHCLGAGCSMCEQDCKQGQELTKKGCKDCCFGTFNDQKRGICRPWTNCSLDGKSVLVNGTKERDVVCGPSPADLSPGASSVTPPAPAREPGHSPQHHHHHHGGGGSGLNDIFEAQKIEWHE

Binder	fold change of affinity
H183/L072 VL T97I (antibody, name in Kabat numbering, V domains shown, Dual-Ig) VH: QVQLVESGGGLVQPGRSLRLSCAASGFTFSNAWMHWVRQAPGKGLEWVAQIKDKGNAYAAYYAPSVKGRFTISRDDSKNSIYLQMNSLKTEDTAVYYCHYVHYASASTVLPAFGVDAWGQGTTVTVSS VL: DIVMTQSPLSLPVTPGEPASISCQASQELVHMNRNTYLHWYQQKPGQAPRLLIYKVSNRFPGVPDRFSGSGSGTDFTLKISRVEAEDVGVYYCAQGTSVPFIFGQGTKLEIK	1.3 fold
H183/L072 VL T97K (antibody, name in Kabat numbering, V domains shown, Dual-Ig) VH: QVQLVESGGGLVQPGRSLRLSCAASGFTFSNAWMHWVRQAPGKGLEWVAQIKDKGNAYAAYYAPSVKGRFTISRDDSKNSIYLQMNSLKTEDTAVYYCHYVHYASASTVLPAFGVDAWGQGTTVTVSS VL: DIVMTQSPLSLPVTPGEPASISCQASQELVHMNRNTYLHWYQQKPGQAPRLLIYKVSNRFPGVPDRFSGSGSGTDFTLKISRVEAEDVGVYYCAQGTSVPFKFGQGTKLEIK	1.1 fold
H183/L072 VL T97L (antibody, name in Kabat numbering, V domains shown, Dual-Ig) VH: QVQLVESGGGLVQPGRSLRLSCAASGFTFSNAWMHWVRQAPGKGLEWVAQIKDKGNAYAAYYAPSVKGRFTISRDDSKNSIYLQMNSLKTEDTAVYYCHYVHYASASTVLPAFGVDAWGQGTTVTVSS VL: DIVMTQSPLSLPVTPGEPASISCQASQELVHMNRNTYLHWYQQKPGQAPRLLIYKVSNRFPGVPDRFSGSGSGTDFTLKISRVEAEDVGVYYCAQGTSVPFLFGQGTKLEIK	0.3 fold
H183/L072 VL T97M (antibody, name in Kabat numbering, V domains shown, Dual-Ig) VH: QVQLVESGGGLVQPGRSLRLSCAASGFTFSNAWMHWVRQAPGKGLEWVAQIKDKGNAYAAYYAPSVKGRFTISRDDSKNSIYLQMNSLKTEDTAVYYCHYVHYASASTVLPAFGVDAWGQGTTVTVSS VL: DIVMTQSPLSLPVTPGEPASISCQASQELVHMNRNTYLHWYQQKPGQAPRLLIYKVSNRFPGVPDRFSGSGSGTDFTLKISRVEAEDVGVYYCAQGTSVPFMFGQGTKLEIK	1.1 fold
H183/L072 VL T97N (antibody, name in Kabat numbering, V domains shown, Dual-Ig) VH: QVQLVESGGGLVQPGRSLRLSCAASGFTFSNAWMHWVRQAPGKGLEWVAQIKDKGNAYAAYYAPSVKGRFTISRDDSKNSIYLQMNSLKTEDTAVYYCHYVHYASASTVLPAFGVDAWGQGTTVTVSS VL: DIVMTQSPLSLPVTPGEPASISCQASQELVHMNRNTYLHWYQQKPGQAPRLLIYKVSNRFPGVPDRFSGSGSGTDFTLKISRVEAEDVGVYYCAQGTSVPFNFGQGTKLEIK	0.5 fold
H183/L072 VL T97P (antibody, name in Kabat numbering, V domains shown, Dual-Ig) VH: QVQLVESGGGLVQPGRSLRLSCAASGFTFSNAWMHWVRQAPGKGLEWVAQIKDKGNAYAAYYAPSVKGRFTISRDDSKNSIYLQMNSLKTEDTAVYYCHYVHYASASTVLPAFGVDAWGQGTTVTVSS VL: DIVMTQSPLSLPVTPGEPASISCQASQELVHMNRNTYLHWYQQKPGQAPRLLIYKVSNRFPGVPDRFSGSGSGTDFTLKISRVEAEDVGVYYCAQGTSVPFPFGQGTKLEIK	0 fold
H183/L072 VL T97Q (antibody, name in Kabat numbering, V domains shown, Dual-Ig) VH: QVQLVESGGGLVQPGRSLRLSCAASGFTFSNAWMHWVRQAPGKGLEWVAQIKDKGNAYAAYYAPSVKGRFTISRDDSKNSIYLQMNSLKTEDTAVYYCHYVHYASASTVLPAFGVDAWGQGTTVTVSS VL: DIVMTQSPLSLPVTPGEPASISCQASQELVHMNRNTYLHWYQQKPGQAPRLLIYKVSNRFPGVPDRFSGSGSGTDFTLKISRVEAEDVGVYYCAQGTSVPFQFGQGTKLEIK	0.7 fold
H183/L072 VL T97R (antibody, name in Kabat numbering, V domains shown, Dual-Ig) VH: QVQLVESGGGLVQPGRSLRLSCAASGFTFSNAWMHWVRQAPGKGLEWVAQIKDKGNAYAAYYAPSVKGRFTISRDDSKNSIYLQMNSLKTEDTAVYYCHYVHYASASTVLPAFGVDAWGQGTTVTVSS VL: DIVMTQSPLSLPVTPGEPASISCQASQELVHMNRNTYLHWYQQKPGQAPRLLIYKVSNRFPGVPDRFSGSGSGTDFTLKISRVEAEDVGVYYCAQGTSVPFRFGQGTKLEIK	0.9 fold
H183/L072 VL T97S (antibody, name in Kabat numbering, V domains shown, Dual-Ig) VH: QVQLVESGGGLVQPGRSLRLSCAASGFTFSNAWMHWVRQAPGKGLEWVAQIKDKGNAYAAYYAPSVKGRFTISRDDSKNSIYLQMNSLKTEDTAVYYCHYVHYASASTVLPAFGVDAWGQGTTVTVSS VL: DIVMTQSPLSLPVTPGEPASISCQASQELVHMNRNTYLHWYQQKPGQAPRLLIYKVSNRFPGVPDRFSGSGSGTDFTLKISRVEAEDVGVYYCAQGTSVPFSFGQGTKLEIK	0.8 fold
H183/L072 VL T97V (antibody, name in Kabat numbering, V domains shown, Dual-Ig) VH: QVQLVESGGGLVQPGRSLRLSCAASGFTFSNAWMHWVRQAPGKGLEWVAQIKDKGNAYAAYYAPSVKGRFTISRDDSKNSIYLQMNSLKTEDTAVYYCHYVHYASASTVLPAFGVDAWGQGTTVTVSS VL: DIVMTQSPLSLPVTPGEPASISCQASQELVHMNRNTYLHWYQQKPGQAPRLLIYKVSNRFPGVPDRFSGSGSGTDFTLKISRVEAEDVGVYYCAQGTSVPFVFGQGTKLEIK	1 fold
H183/L072 VL T97W (antibody, name in Kabat numbering, V domains shown, Dual-Ig) VH: QVQLVESGGGLVQPGRSLRLSCAASGFTFSNAWMHWVRQAPGKGLEWVAQIKDKGNAYAAYYAPSVKGRFTISRDDSKNSIYLQMNSLKTEDTAVYYCHYVHYASASTVLPAFGVDAWGQGTTVTVSS VL: DIVMTQSPLSLPVTPGEPASISCQASQELVHMNRNTYLHWYQQKPGQAPRLLIYKVSNRFPGVPDRFSGSGSGTDFTLKISRVEAEDVGVYYCAQGTSVPFWFGQGTKLEIK	0.1 fold

Results, then the binder that gave them:

fold change of affinity	Binder
0.5 fold	H183/L072 VL V27cA (antibody, name in Kabat numbering, V domains shown, Dual-Ig) VH: QVQLVESGGGLVQPGRSLRLSCAASGFTFSNAWMHWVRQAPGKGLEWVAQIKDKGNAYAAYYAPSVKGRFTISRDDSKNSIYLQMNSLKTEDTAVYYCHYVHYASASTVLPAFGVDAWGQGTTVTVSS VL: DIVMTQSPLSLPVTPGEPASISCQASQELAHMNRNTYLHWYQQKPGQAPRLLIYKVSNRFPGVPDRFSGSGSGTDFTLKISRVEAEDVGVYYCAQGTSVPFTFGQGTKLEIK
0.3 fold	H183/L072 VL V27cD (antibody, name in Kabat numbering, V domains shown, Dual-Ig) VH: QVQLVESGGGLVQPGRSLRLSCAASGFTFSNAWMHWVRQAPGKGLEWVAQIKDKGNAYAAYYAPSVKGRFTISRDDSKNSIYLQMNSLKTEDTAVYYCHYVHYASASTVLPAFGVDAWGQGTTVTVSS VL: DIVMTQSPLSLPVTPGEPASISCQASQELDHMNRNTYLHWYQQKPGQAPRLLIYKVSNRFPGVPDRFSGSGSGTDFTLKISRVEAEDVGVYYCAQGTSVPFTFGQGTKLEIK
0.7 fold	H183/L072 VL V27cE (antibody, name in Kabat numbering, V domains shown, Dual-Ig) VH: QVQLVESGGGLVQPGRSLRLSCAASGFTFSNAWMHWVRQAPGKGLEWVAQIKDKGNAYAAYYAPSVKGRFTISRDDSKNSIYLQMNSLKTEDTAVYYCHYVHYASASTVLPAFGVDAWGQGTTVTVSS VL: DIVMTQSPLSLPVTPGEPASISCQASQELEHMNRNTYLHWYQQKPGQAPRLLIYKVSNRFPGVPDRFSGSGSGTDFTLKISRVEAEDVGVYYCAQGTSVPFTFGQGTKLEIK
0.6 fold	H183/L072 VL V27cF (antibody, name in Kabat numbering, V domains shown, Dual-Ig) VH: QVQLVESGGGLVQPGRSLRLSCAASGFTFSNAWMHWVRQAPGKGLEWVAQIKDKGNAYAAYYAPSVKGRFTISRDDSKNSIYLQMNSLKTEDTAVYYCHYVHYASASTVLPAFGVDAWGQGTTVTVSS VL: DIVMTQSPLSLPVTPGEPASISCQASQELFHMNRNTYLHWYQQKPGQAPRLLIYKVSNRFPGVPDRFSGSGSGTDFTLKISRVEAEDVGVYYCAQGTSVPFTFGQGTKLEIK
0.4 fold	H183/L072 VL V27cG (antibody, name in Kabat numbering, V domains shown, Dual-Ig) VH: QVQLVESGGGLVQPGRSLRLSCAASGFTFSNAWMHWVRQAPGKGLEWVAQIKDKGNAYAAYYAPSVKGRFTISRDDSKNSIYLQMNSLKTEDTAVYYCHYVHYASASTVLPAFGVDAWGQGTTVTVSS VL: DIVMTQSPLSLPVTPGEPASISCQASQELGHMNRNTYLHWYQQKPGQAPRLLIYKVSNRFPGVPDRFSGSGSGTDFTLKISRVEAEDVGVYYCAQGTSVPFTFGQGTKLEIK
0.6 fold	H183/L072 VL V27cH (antibody, name in Kabat numbering, V domains shown, Dual-Ig) VH: QVQLVESGGGLVQPGRSLRLSCAASGFTFSNAWMHWVRQAPGKGLEWVAQIKDKGNAYAAYYAPSVKGRFTISRDDSKNSIYLQMNSLKTEDTAVYYCHYVHYASASTVLPAFGVDAWGQGTTVTVSS VL: DIVMTQSPLSLPVTPGEPASISCQASQELHHMNRNTYLHWYQQKPGQAPRLLIYKVSNRFPGVPDRFSGSGSGTDFTLKISRVEAEDVGVYYCAQGTSVPFTFGQGTKLEIK
1 fold	H183/L072 VL V27cI (antibody, name in Kabat numbering, V domains shown, Dual-Ig) VH: QVQLVESGGGLVQPGRSLRLSCAASGFTFSNAWMHWVRQAPGKGLEWVAQIKDKGNAYAAYYAPSVKGRFTISRDDSKNSIYLQMNSLKTEDTAVYYCHYVHYASASTVLPAFGVDAWGQGTTVTVSS VL: DIVMTQSPLSLPVTPGEPASISCQASQELIHMNRNTYLHWYQQKPGQAPRLLIYKVSNRFPGVPDRFSGSGSGTDFTLKISRVEAEDVGVYYCAQGTSVPFTFGQGTKLEIK
0.9 fold	H183/L072 VL V27cK (antibody, name in Kabat numbering, V domains shown, Dual-Ig) VH: QVQLVESGGGLVQPGRSLRLSCAASGFTFSNAWMHWVRQAPGKGLEWVAQIKDKGNAYAAYYAPSVKGRFTISRDDSKNSIYLQMNSLKTEDTAVYYCHYVHYASASTVLPAFGVDAWGQGTTVTVSS VL: DIVMTQSPLSLPVTPGEPASISCQASQELKHMNRNTYLHWYQQKPGQAPRLLIYKVSNRFPGVPDRFSGSGSGTDFTLKISRVEAEDVGVYYCAQGTSVPFTFGQGTKLEIK
0.8 fold	H183/L072 VL V27cL (antibody, name in Kabat numbering, V domains shown, Dual-Ig) VH: QVQLVESGGGLVQPGRSLRLSCAASGFTFSNAWMHWVRQAPGKGLEWVAQIKDKGNAYAAYYAPSVKGRFTISRDDSKNSIYLQMNSLKTEDTAVYYCHYVHYASASTVLPAFGVDAWGQGTTVTVSS VL: DIVMTQSPLSLPVTPGEPASISCQASQELLHMNRNTYLHWYQQKPGQAPRLLIYKVSNRFPGVPDRFSGSGSGTDFTLKISRVEAEDVGVYYCAQGTSVPFTFGQGTKLEIK
0.9 fold	H183/L072 VL V27cM (antibody, name in Kabat numbering, V domains shown, Dual-Ig) VH: QVQLVESGGGLVQPGRSLRLSCAASGFTFSNAWMHWVRQAPGKGLEWVAQIKDKGNAYAAYYAPSVKGRFTISRDDSKNSIYLQMNSLKTEDTAVYYCHYVHYASASTVLPAFGVDAWGQGTTVTVSS VL: DIVMTQSPLSLPVTPGEPASISCQASQELMHMNRNTYLHWYQQKPGQAPRLLIYKVSNRFPGVPDRFSGSGSGTDFTLKISRVEAEDVGVYYCAQGTSVPFTFGQGTKLEIK

From patent publication US20210388087A1 (Chugai, published 2021)
